Assay results taken from publication PMC6900475.

Columns and labels:
[1] = target: SK.Plg* activator complex of SKC1 (αG88-β_(STAB)-γG88) (group G streptococcus (GGS), G88 | group A streptococcus (GAS), STAB902 | not stated)
[2] = target: SK.Plg* activator complex of SKC2 (α_(STAB)-βG88-γ_(STAB)) (group A streptococcus (GAS), STAB902 | group G streptococcus (GGS), G88 | not stated)

## plasminogen (natural protein)
[1]
  K m (µM), proteolytic constants: Plg activation by the SK.Plg* complex against substrate Plg 0.3 to 5.0 µM, S2251 hydrolysis at 405 nm, 37 °C: 1.09 µM
[2]
  K m (µM), proteolytic constants: Plg activation by the SK.Plg* complex against substrate Plg 0.3 to 5.0 µM, S2251 hydrolysis at 405 nm, 37 °C: 3.73 µM
